The results in this text go back to paper doi:10.1101/2024.02.19.580982.

Values joined by “and” are separate entries in the source; they are usually repeats but may differ in a detail not shown here. Equal values may be shown once.

For experiment [1], the target named is α-Synuclein preformed fibrils (α-Syn PFF) (mouse) (UniProt O55042). In words: SPR.
For experiment [2] the target is unchanged. In words: ELISA. On the technique in general: ELISA stands for enzyme-linked immunosorbent assay.

ΔLRR hNOD2-Fc, sequence (Q9HC29 whole entry, stated change not applied, the tested form may be a part): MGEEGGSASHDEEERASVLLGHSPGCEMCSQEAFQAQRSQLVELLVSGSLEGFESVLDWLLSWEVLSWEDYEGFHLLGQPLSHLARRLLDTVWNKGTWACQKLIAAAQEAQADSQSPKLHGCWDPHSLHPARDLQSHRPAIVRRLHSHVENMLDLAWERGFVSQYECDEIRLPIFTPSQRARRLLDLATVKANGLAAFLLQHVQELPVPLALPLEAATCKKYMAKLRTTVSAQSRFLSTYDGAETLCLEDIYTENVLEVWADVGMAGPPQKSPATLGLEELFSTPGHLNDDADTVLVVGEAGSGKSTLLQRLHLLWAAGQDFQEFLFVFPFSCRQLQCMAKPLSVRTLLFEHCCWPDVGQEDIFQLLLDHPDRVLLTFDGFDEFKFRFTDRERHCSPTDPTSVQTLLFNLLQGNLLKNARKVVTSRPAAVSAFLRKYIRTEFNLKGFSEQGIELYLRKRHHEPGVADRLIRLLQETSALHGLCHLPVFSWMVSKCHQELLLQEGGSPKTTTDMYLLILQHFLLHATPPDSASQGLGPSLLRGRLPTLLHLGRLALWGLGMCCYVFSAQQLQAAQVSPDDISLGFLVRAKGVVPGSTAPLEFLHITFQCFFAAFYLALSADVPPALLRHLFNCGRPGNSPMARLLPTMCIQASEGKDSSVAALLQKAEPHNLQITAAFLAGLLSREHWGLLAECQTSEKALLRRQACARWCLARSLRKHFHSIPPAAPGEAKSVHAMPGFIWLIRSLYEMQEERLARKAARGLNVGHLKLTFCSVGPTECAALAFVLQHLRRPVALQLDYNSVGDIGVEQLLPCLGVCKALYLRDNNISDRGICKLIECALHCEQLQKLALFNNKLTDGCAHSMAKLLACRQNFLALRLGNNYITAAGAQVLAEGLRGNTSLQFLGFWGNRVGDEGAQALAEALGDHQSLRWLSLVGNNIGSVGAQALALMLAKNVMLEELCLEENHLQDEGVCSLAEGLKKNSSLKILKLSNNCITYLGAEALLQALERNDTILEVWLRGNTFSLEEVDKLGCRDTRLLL

As for “FL hNOD2 with the Fc-tag removed by HRV 3C protease (from UniProt Q9HC29 1-1040) (natural protein)”, the Kd (commonly the concentration at which binding is half-saturated) in experiment [1] is 807 nM and 1190 nM.
On to “human IgG1 Fc-tagged human NOD2 full-length (FL hNOD2-Fc) (from UniProt Q9HC29 1-1040) (Fc fusion)”, for which the Kd in experiment [2] amounted to 1200 nM.
“ΔLRR hNOD2-Fc (from UniProt Q9HC29 1-1040) (Fc fusion)” returned a Kd in experiment [2] of 2810 nM.
